We go through 6 molecules from PMC10702427, “Effects of Dimerization on the Deacylase Activities of Human SIRT2” (Biochemistry, 2023).

Residue numbers refer to the chain shown, from its start. Names and notes keep the numbering of the source. Values joined by “and” are separate entries in the source; they are usually repeats but may differ in a detail not shown here. Identical values can stand only once. Like-named read-outs stand apart in the source and are kept apart here. Primed or numbered codes have the meaning given here. Where no end group is shown, it is not given here. The star is where a group is joined. Myristoyl = CCCCCCCCCCCCCC(=O)*; PEG4′ = PEG4 linker

The chains are these.
B1: myristoyl-H4K16 peptide (13mer) (peptide)
peptide: KGLGKGGAK(Myristoyl)RHRK
notes: also called myristoyl peptide; myristoylated peptide; source: synthetic peptide (New England Peptide)
B2: SIRT2^cat(Q142A/E340A) (domain or fragment, human)
chain: SGEADMDFLRNLFSQTLSLGSQKERLLDELTLEGVARYMQSERCRRVICLVGAGISTSAGIPDFRSPSTGLYDNLEKYHLPYPEAIFEISYFKKHPEPFFALAKELYPGAFKPTICHYFMRLLKDKGLLLRCYTQNIDTLERIAGLEQEDLVEAHGTFYTSHCVSASCRHEYPLSWMKEKIFSEVTPKCEDCQSLVKPDIVFFGESLPARFFSCMQSDFLKVDLLLVMGTSLQVQPFASLISKAPLSTPRLLINKEKAGQSDPFLGMIMGLGGGMDFDSKKAYRDVAWLGECDQGCLALAELLGWKKALEDLVRREHASIDAQS
B3: full-length SIRT2 (amino acids 1–389), Q8IXJ6-1 1-389 (enzyme)
chain: MAEPDPSHPLETQAGKVQEAQDSDSDSEGGAAGGEADMDFLRNLFSQTLSLGSQKERLLDELTLEGVARYMQSERCRRVICLVGAGISTSAGIPDFRSPSTGLYDNLEKYHLPYPEAIFEISYFKKHPEPFFALAKELYPGQFKPTICHYFMRLLKDKGLLLRCYTQNIDTLERIAGLEQEDLVEAHGTFYTSHCVSASCRHEYPLSWMKEKIFSEVTPKCEDCQSLVKPDIVFFGESLPARFFSCMQSDFLKVDLLLVMGTSLQVQPFASLISKAPLSTPRLLINKEKAGQSDPFLGMIMGLGGGMDFDSKKAYRDVAWLGECDQGCLALAELLGWKKELEDLVRREHASIDAQSGAGVPNPSTSASPKKSPPPAKDEARTTEREKPQ
B4: SIRT2cat catalytic domain (protein)
chain: ERLLDELTLEGVARYMQSERCRRVICLVGAGISTSAGIPDFRSPSTGLYDNLEKYHLPYPEAIFEISYFKKHPEPFFALAKELYPGQFKPTICHYFMRLLKDKGLLLRCYTQNIDTLERIAGLEQEDLVEAHGTFYTSHCVSASCRHEYPLSWMKEKIFSEVTPKCEDCQSLVKPDIVFFGESLPARFFSCMQSDFLKVDLLLVMGTSLQVQPFASLISKAPLSTPRLLINKEKAGQSDPFLGMIMGLGGGMDFDSKKAYRDVAWLGECDQGCLALAELLGWKKELEDLVRREHASIDAQS
B5: FAM-myristoyl-H4K16 peptide (peptide)
peptide: {FAM-PEG4′}-KGLGKGGAK(Myristoyl)RHRK-OH

Data set [1] addresses SIRT2 catalytic domain (SIRT2^cat), amino acids 34–356 (human) (UniProt Q8IXJ6). Description: cross-linking; 1 mM Bis(NHS)-PEG5, 10 μM SIRT2 protein, room temperature 1 h, PBS with 1 mM DTT, with or without 12 μM acylated H4K16 peptide, ADP-ribose or the 286-313 peptide; SDS-PAGE, Coomassie bands quantified.
The target is the same in data set [2]. The data set can be described thus: cross-linking; Bis(NHS)-PEG5, 10 μM SIRT2^cat pre-equilibrated with SIRT2 inhibitors, 50 μL, 2% DMSO; SDS-PAGE, Coomassie bands quantified.
Data set [3] shares this target. The data set can be described thus: SEC; analytical SEC, Bio-Rad Enrich SEC 650 column, PBS with 1 mM DTT, 100 μL injected (SIRT2^cat 2-80 μM; full-length SIRT2 56 μM); Kd of dimer to monomers estimated from the peak concentrations at elution, averaged over all runs with two peaks.
Data set [4] shares this target. Description: cross-linking; 1 mM Bis(NHS)-PEG5, 10 μM SIRT2 protein, room temperature 1 h, PBS with 1 mM DTT, with or without 12 μM acylated H4K16 peptide, ADP-ribose or the 286-313 peptide; SDS-PAGE, Coomassie bands quantified. This is another data set of the same source.
For data set [5], the target named is T1, SIRT2 catalytic domain (SIRT2^cat), amino acids 34–356 (human, UniProt Q8IXJ6-1 34-356).
T1 chain: B2 chain with A110Q, A308E

In the data set “SIRT2^cat(Q142A/E340A)” the target is B2. Description: cross-linking; 1 mM Bis(NHS)-PEG5, 10 μM SIRT2 protein, room temperature 1 h, PBS with 1 mM DTT, with or without 12 μM acylated H4K16 peptide, ADP-ribose or the 286-313 peptide; SDS-PAGE, Coomassie bands quantified. The conditions noted are these: both partners purified.
Data set [6] concerns the molecule itself. Description: cell-based or functional assay.
Data set [7] addresses T2, full-length SIRT2 (amino acids 1–389) (human), Q8IXJ6.
T2 chain: B3 chain
Description: cross-linking; 1 mM Bis(NHS)-PEG5, 10 μM SIRT2 protein, room temperature 1 h, PBS with 1 mM DTT, with or without 12 μM acylated H4K16 peptide, ADP-ribose or the 286-313 peptide; SDS-PAGE, Coomassie bands quantified. The conditions noted are these: remark: other sources report otherwise.

In data set [8] the target is T2, full-length SIRT2 (amino acids 1–389) …. The data set can be described thus: SEC; analytical SEC, Bio-Rad Enrich SEC 650 column, PBS with 1 mM DTT, 100 μL injected (SIRT2^cat 2-80 μM; full-length SIRT2 56 μM); Kd of dimer to monomers estimated from the peak concentrations at elution, averaged over all runs with two peaks. The conditions noted are these: remark: other sources report otherwise.

The target of data set [9] is myristoyl-H4K16 peptide H4K16 peptide (Homo sapiens, UniProt P62805, myristoylated K16). The data set can be described thus: gel shift assay.

“SIRT2 catalytic domain (SIRT2^cat), amino acids 34–356 (from UniProt Q8IXJ6-1 34-356) (domain or fragment)”: in [1], the percent of the protein cross-linked as dimer was 47.4%. Besides, in [2], the percent of the protein cross-linked as dimer, no inhibitor is 49.9% and 50.6%; the percent of the protein cross-linked as dimer, with 20 μM ascorbyl palmitate came out at 32.1%; the percent of the protein cross-linked as dimer, with 200 μM ascorbyl palmitate stood at 31.8%. Also, in data set [3], the dissociation constant Kd was 0.121 µM and the stoichiometry N was 2. Also, in [4], the percent of the protein cross-linked as dimer was determined as 50.8%, the percent of the protein cross-linked as trimer stood at 6% and the percent of the protein migrating as monomer after cross-linking worked out at 43.2%.
In turn, B1 had a Kd in data set [5] of 1 µM. Further, in the data set with SIRT2^cat(Q142A/E340A), the binding result is on record as “binds”.
For the molecule B2, in data set [6], the “fold decrease in de-4-oxononanoylase catalytic efficiency (kcat/Km) of the mutant against wild-type SIRT2^cat” value came to 4 fold and the “fold decrease in deacetylase catalytic efficiency (kcat/Km, acetyl-H4K16 peptide, 1 mM NAD+) of the mutant against wild-type SIRT2^cat” value came to 6 fold.
Molecule B3 gave a percent of the protein oligomeric after cross-linking in [7] of 50%. Moreover, in [8], the stoichiometry N was 2.
Regarding B4, the Kd in data set [9] is approximately 1.5 µM.
Take B5: in data set [5], the Kd is 2 µM.
